# Results from the supplement of paper PMC9112550, “Optimization of the antimicrobial peptide Bac7 by deep mutational scanning” (BMC Biology, 2022).
# System: Escherichia coli TOP10
# Assay: shrunken log2 fold change of peptide-encoding DNA abundance (4.5 h post-induction vs induction); higher = less antimicrobial activity (less host growth inhibition)
# Conditions: time post-induction: 4.5 h; library: site-saturation at positions 5, 18, 19, 20
# 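Further: peptides expressed intracellularly from a pBAD plasmid library in pooled LB shake-flask culture, induced with 0.3% L-arabinose, DNA abundance read by NGS, three biological replicates, DESeq2 with apeglm shrinkage.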
row,Sequence,shrunken log2 fold change
1,RRIRRRPPRLPRPRPRPLQIPRP,0.0422
2,RRIRIRPPRLPRPRPRPPCKPRP,-0.422
3,RRIRRRPPRLPRPRPRPWDIPRP,0.0194
4,RRIRRRPPRLPRPRPRPSPHPRP,0.334
5,RRIRYRPPRLPRPRPRPNLDPRP,-0.148
6,RRIRVRPPRLPRPRPRPDCCPRP,-0.0439
7,RRIRNRPPRLPRPRPRPDCGPRP,0.0246
8,RRIRRRPPRLPRPRPRPSKNPRP,-0.00571
9,RRIRRRPPRLPRPRPRPGCEPRP,0.354
10,RRIRNRPPRLPRPRPRPVGFPRP,0.165
11,RRIRTRPPRLPRPRPRPHCMPRP,-0.153
12,RRIRARPPRLPRPRPRPPYAPRP,0.251
13,RRIRCRPPRLPRPRPRPGTSPRP,0.0279
14,RRIRKRPPRLPRPRPRPRDKPRP,0.116
15,RRIRPRPPRLPRPRPRPVKKPRP,-0.016
16,RRIRQRPPRLPRPRPRPLQVPRP,-0.0738
17,RRIRPRPPRLPRPRPRPGMYPRP,-0.0544
18,RRIRTRPPRLPRPRPRPCIPPRP,-1.3
19,RRIRQRPPRLPRPRPRPVRNPRP,-0.0556
20,RRIRGRPPRLPRPRPRPSYWPRP,0.119
21,RRIRLRPPRLPRPRPRPCISPRP,-0.177
22,RRIRQRPPRLPRPRPRPKMPPRP,-0.0283

row,Sequence,shrunken log2 fold change
1,RRIRLRPPRLPRPRPRPMAYPRP,-0.0987
2,RRIRIRPPRLPRPRPRPYEPPRP,-0.21
3,RRIRDRPPRLPRPRPRPFMAPRP,0.035
4,RRIRARPPRLPRPRPRPSVGPRP,0.324
5,RRIRFRPPRLPRPRPRPMYGPRP,-0.36
6,RRIRIRPPRLPRPRPRPAYTPRP,-1.41
7,RRIRARPPRLPRPRPRPDRIPRP,-0.00136
8,RRIRGRPPRLPRPRPRPHHIPRP,-0.525
9,RRIRLRPPRLPRPRPRPYCAPRP,-0.151
10,RRIRNRPPRLPRPRPRPHIPPRP,-0.793
11,RRIRNRPPRLPRPRPRPVLGPRP,0.00359
12,RRIRDRPPRLPRPRPRPTTSPRP,0.335
13,RRIRIRPPRLPRPRPRPLGGPRP,0.00908
14,RRIRVRPPRLPRPRPRPDTHPRP,-0.214
15,RRIRFRPPRLPRPRPRPSLDPRP,-0.296
16,RRIRKRPPRLPRPRPRPYHTPRP,-0.673
17,RRIRNRPPRLPRPRPRPMKYPRP,-0.164
18,RRIRPRPPRLPRPRPRPEFAPRP,0.602
19,RRIRFRPPRLPRPRPRPKPQPRP,0.384
20,RRIRDRPPRLPRPRPRPKCWPRP,-0.00042
21,RRIRLRPPRLPRPRPRPTYPPRP,0.0515
22,RRIRFRPPRLPRPRPRPHKRPRP,0.0127

row,Sequence,shrunken log2 fold change
1,RRIRIRPPRLPRPRPRPRAVPRP,0.314
2,RRIRNRPPRLPRPRPRPWNQPRP,-0.0135
3,RRIRLRPPRLPRPRPRPPEHPRP,0.188
4,RRIRHRPPRLPRPRPRPGGKPRP,-0.0185
5,RRIRERPPRLPRPRPRPWCAPRP,-0.158
6,RRIRMRPPRLPRPRPRPKYVPRP,-0.0144
7,RRIRDRPPRLPRPRPRPYCAPRP,-0.204
8,RRIRKRPPRLPRPRPRPCCEPRP,0.638
9,RRIRIRPPRLPRPRPRPLFQPRP,-0.394
10,RRIRMRPPRLPRPRPRPVQQPRP,0.113
11,RRIRIRPPRLPRPRPRPMDGPRP,-0.108
12,RRIRCRPPRLPRPRPRPLCEPRP,-0.0345
13,RRIRPRPPRLPRPRPRPVLSPRP,0.076
14,RRIRPRPPRLPRPRPRPSNCPRP,-0.909
15,RRIRSRPPRLPRPRPRPMRVPRP,0.691
16,RRIRGRPPRLPRPRPRPHPWPRP,0.345
17,RRIRGRPPRLPRPRPRPERNPRP,0.855
18,RRIRLRPPRLPRPRPRPQVIPRP,-0.136
19,RRIRDRPPRLPRPRPRPYALPRP,-0.051
20,RRIRVRPPRLPRPRPRPSTNPRP,-0.146
21,RRIRGRPPRLPRPRPRPRNMPRP,0.0712
22,RRIRDRPPRLPRPRPRPPDIPRP,-0.0754

row,Sequence,shrunken log2 fold change
1,RRIRVRPPRLPRPRPRPPRWPRP,0.812
2,RRIRYRPPRLPRPRPRPADPPRP,0.035
3,RRIRARPPRLPRPRPRPAQSPRP,0.538
4,RRIRCRPPRLPRPRPRPNLRPRP,-0.315
5,RRIRCRPPRLPRPRPRPKSGPRP,0.017
6,RRIRCRPPRLPRPRPRPGNRPRP,0.0246
7,RRIRPRPPRLPRPRPRPTAWPRP,0.666
8,RRIRCRPPRLPRPRPRPQCDPRP,-0.264
9,RRIRNRPPRLPRPRPRPWTSPRP,0.0238
10,RRIRCRPPRLPRPRPRPKEFPRP,0.0238
11,RRIRVRPPRLPRPRPRPHLYPRP,-0.309
12,RRIRRRPPRLPRPRPRPNCRPRP,0.563
13,RRIRYRPPRLPRPRPRPTPRPRP,0.886
14,RRIRLRPPRLPRPRPRPDGVPRP,-0.0786
15,RRIRNRPPRLPRPRPRPEDRPRP,0.0787
16,RRIRSRPPRLPRPRPRPDYYPRP,-0.831
17,RRIRRRPPRLPRPRPRPRCYPRP,0.00798
18,RRIRARPPRLPRPRPRPQKSPRP,0.0945
19,RRIRIRPPRLPRPRPRPQNSPRP,-0.595
20,RRIRNRPPRLPRPRPRPKTIPRP,-0.14
21,RRIRERPPRLPRPRPRPNYWPRP,-0.344
22,RRIRPRPPRLPRPRPRPLDGPRP,0.0208

row,Sequence,shrunken log2 fold change
1,RRIRRRPPRLPRPRPRPYETPRP,0.119
2,RRIRWRPPRLPRPRPRPEDKPRP,-0.028
3,RRIRVRPPRLPRPRPRPAIPPRP,-0.356
4,RRIRHRPPRLPRPRPRPNWDPRP,-0.332
5,RRIRWRPPRLPRPRPRPEIRPRP,0.00534
6,RRIRQRPPRLPRPRPRPWMAPRP,-0.147
7,RRIRARPPRLPRPRPRPYKSPRP,-0.441
8,RRIRWRPPRLPRPRPRPAMFPRP,0.324
9,RRIRLRPPRLPRPRPRPGISPRP,-0.00752
10,RRIRGRPPRLPRPRPRPSQCPRP,-0.165
11,RRIRTRPPRLPRPRPRPEANPRP,-0.0399
12,RRIRTRPPRLPRPRPRPYLQPRP,-0.525
13,RRIRHRPPRLPRPRPRPNCDPRP,-0.264
14,RRIRARPPRLPRPRPRPDPPPRP,0.901
15,RRIRWRPPRLPRPRPRPMHAPRP,0.542
16,RRIRTRPPRLPRPRPRPMEKPRP,-0.00136
17,RRIRRRPPRLPRPRPRPSHLPRP,-0.21
18,RRIRIRPPRLPRPRPRPDHAPRP,-0.0379
19,RRIRHRPPRLPRPRPRPTNAPRP,-0.463
20,RRIRERPPRLPRPRPRPRDDPRP,0.0953
21,RRIRLRPPRLPRPRPRPPPMPRP,0.966
